Laboratory results: patent publication US20220195407, “OPTIMIZATION OF ENGINEERED MEGANUCLEASES FOR RECOGNITION SEQUENCES” (Precision BioSciences, Inc., published 2022)

Assays:
Test in all cases: cell_activity; CHO iGFFP reporter
LOX 3-4m.2189 = biological target: T1, LOX 3-4m.2189 (artificial (I-CreI derived))
T1 chain: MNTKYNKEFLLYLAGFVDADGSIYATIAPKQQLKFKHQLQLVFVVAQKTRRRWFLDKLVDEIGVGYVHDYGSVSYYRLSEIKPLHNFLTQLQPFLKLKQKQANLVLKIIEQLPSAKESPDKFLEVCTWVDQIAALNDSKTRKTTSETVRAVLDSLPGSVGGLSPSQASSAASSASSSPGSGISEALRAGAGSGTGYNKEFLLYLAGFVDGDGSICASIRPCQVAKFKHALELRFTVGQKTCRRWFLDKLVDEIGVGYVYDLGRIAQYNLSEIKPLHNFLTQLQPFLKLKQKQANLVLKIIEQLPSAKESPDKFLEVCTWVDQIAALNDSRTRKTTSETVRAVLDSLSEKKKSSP
Excerpt: (§1) A CHO cell reporter system (see WO/2012/167192, FIG. 3) was used to determine whether the engineered meganucleases generated in these studies could recognize and cleave the modified LOX 3-4 recognition sequences in Table 87. To perform the assay, a pair of CHO cell reporter lines were produced, which carried a non-functional Green Fluorescent Protein (GFP) gene expression cassette integrated into the genome of the cell. The GFP gene in each cell line was interrupted by a pair of recognition sequences such that intracellular cleavage of either recognition sequence by a meganuclease would stimulate a homologous recombination event resulting in a functional GFP gene. In both cell lines, one of the recognition sequences was derived from the LOX 3-4 recognition sequence (i.e., those sequences disclosed in Table 87), and the second recognition sequence was specifically recognized by a control meganuclease called “CHO 23/24.” CHO reporter cells comprising a recognition sequence derived from the LOX 3-4 recognition sequence and the CHO 23/24 recognition sequence are referred to herein as “test cells.”
(§2) Novel engineered meganucleases derived from the LOX 3-4x.109 meganuclease were prepared by making amino acid substitutions at one or more positions in the first subunit and one or more positions in the second subunit. These engineered meganucleases were then evaluated for cleavage of the LOX 3-4 recognition sequence modified to have a TCAA center sequence (SEQ ID NO: 331) in the CHO reporter assay according to Example 1.

LOX 3-4m.2157 = biological target: T2, LOX 3-4m.2157 (artificial (I-CreI derived))
T2 chain: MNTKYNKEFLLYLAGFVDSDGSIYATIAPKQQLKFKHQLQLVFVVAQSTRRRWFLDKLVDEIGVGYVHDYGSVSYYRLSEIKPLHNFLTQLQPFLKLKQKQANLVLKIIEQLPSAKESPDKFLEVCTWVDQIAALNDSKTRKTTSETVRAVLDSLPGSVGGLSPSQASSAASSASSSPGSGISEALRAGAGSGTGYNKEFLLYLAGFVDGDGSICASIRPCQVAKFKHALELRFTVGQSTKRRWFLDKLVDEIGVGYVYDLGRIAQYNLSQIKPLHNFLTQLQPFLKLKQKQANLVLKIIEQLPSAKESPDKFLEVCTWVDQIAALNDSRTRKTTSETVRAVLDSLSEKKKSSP
Excerpt: as §1, §2

LOX 3-4m.2165 = biological target: T3, LOX 3-4m.2165 (artificial (I-CreI derived))
T3 chain: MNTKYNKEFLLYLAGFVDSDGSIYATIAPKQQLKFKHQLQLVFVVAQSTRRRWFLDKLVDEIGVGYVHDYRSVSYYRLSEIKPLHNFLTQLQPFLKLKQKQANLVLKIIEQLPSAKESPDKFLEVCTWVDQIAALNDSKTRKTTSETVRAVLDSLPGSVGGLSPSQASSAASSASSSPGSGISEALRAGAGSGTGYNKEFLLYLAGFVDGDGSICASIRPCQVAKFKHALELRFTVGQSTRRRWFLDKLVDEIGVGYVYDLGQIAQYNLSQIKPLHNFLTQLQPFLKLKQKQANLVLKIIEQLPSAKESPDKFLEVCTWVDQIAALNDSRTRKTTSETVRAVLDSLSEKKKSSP
Excerpt: as §1, §2

LOX 3-4m.2229 = biological target: T4, LOX 3-4m.2229 (artificial (I-CreI derived))
T4 chain: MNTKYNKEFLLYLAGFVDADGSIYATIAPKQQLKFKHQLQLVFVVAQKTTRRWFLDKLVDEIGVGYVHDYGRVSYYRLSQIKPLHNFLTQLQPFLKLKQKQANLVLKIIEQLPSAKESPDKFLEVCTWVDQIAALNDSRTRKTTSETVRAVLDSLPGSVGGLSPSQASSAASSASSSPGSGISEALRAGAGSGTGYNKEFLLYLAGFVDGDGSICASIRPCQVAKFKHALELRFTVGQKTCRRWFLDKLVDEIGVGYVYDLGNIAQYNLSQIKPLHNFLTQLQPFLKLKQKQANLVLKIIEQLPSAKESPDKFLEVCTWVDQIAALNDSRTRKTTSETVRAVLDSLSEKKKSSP
Excerpt: as §1, §2

LOX 3-4m.1970 = biological target: T5, LOX 3-4m.1970 (artificial (I-CreI derived))
T5 chain: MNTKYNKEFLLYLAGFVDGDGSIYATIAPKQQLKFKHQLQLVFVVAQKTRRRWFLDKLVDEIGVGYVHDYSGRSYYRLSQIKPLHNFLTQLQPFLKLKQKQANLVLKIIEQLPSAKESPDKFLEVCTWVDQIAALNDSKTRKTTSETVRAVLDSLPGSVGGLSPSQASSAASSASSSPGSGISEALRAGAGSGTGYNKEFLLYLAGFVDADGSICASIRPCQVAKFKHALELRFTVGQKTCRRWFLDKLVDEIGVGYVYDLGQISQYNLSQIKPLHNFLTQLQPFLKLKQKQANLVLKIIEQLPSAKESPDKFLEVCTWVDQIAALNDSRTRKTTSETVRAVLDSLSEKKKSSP
Excerpt: as §1
as §2, with “subunit. The N-terminal subunit recognizes the reverse complement of the AG portion of the four base pair center sequence, which is CT, and the C-terminal subunit recognizes the GC portion of the […] center sequence.” for “subunit.”, “TTGG” for “TCAA”, “248)” for “331)”, “1. The substitutions in each subunit are provided in Tables 177 and 178, respectively.” for “1.”

LOX 3-4m.2045 = biological target: T6, LOX 3-4m.2045 (artificial (I-CreI derived))
T6 chain: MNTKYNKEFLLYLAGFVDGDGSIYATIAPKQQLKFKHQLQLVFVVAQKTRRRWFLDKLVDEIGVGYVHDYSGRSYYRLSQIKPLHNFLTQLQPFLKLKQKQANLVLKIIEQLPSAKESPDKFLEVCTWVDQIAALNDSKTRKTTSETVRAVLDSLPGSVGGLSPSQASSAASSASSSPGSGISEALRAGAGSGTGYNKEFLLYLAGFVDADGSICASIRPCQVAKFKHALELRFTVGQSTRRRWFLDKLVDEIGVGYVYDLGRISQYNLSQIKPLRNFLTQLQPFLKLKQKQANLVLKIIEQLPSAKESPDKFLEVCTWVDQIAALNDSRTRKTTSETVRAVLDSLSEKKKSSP
Excerpt: as §1
as §2, with “subunit. The N-terminal subunit recognizes the reverse complement of the AG portion of the four base pair center sequence, which is CT, and the C-terminal subunit recognizes the GC portion of the […] center sequence.” for “subunit.”, “TTGG” for “TCAA”, “248)” for “331)”, “1. The substitutions in each subunit are provided in Tables 177 and 178, respectively.” for “1.”

LOX 3-4m.1981 = biological target: T7, LOX 3-4m.1981 (artificial (I-CreI derived))
T7 chain: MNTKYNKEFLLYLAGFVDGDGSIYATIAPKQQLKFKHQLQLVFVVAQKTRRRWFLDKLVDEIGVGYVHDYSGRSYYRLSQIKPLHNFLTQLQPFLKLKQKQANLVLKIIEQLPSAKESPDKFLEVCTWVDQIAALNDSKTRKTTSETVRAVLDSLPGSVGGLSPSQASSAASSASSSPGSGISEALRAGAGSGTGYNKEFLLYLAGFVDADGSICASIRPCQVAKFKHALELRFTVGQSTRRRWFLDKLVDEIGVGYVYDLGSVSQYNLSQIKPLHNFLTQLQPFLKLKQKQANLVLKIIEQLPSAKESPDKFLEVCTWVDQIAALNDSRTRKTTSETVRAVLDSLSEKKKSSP
Excerpt: as §1
as §2, with “subunit. The N-terminal subunit recognizes the reverse complement of the AG portion of the four base pair center sequence, which is CT, and the C-terminal subunit recognizes the GC portion of the […] center sequence.” for “subunit.”, “TTGG” for “TCAA”, “248)” for “331)”, “1. The substitutions in each subunit are provided in Tables 177 and 178, respectively.” for “1.”

LOX 3-4m.1973 = biological target: T8, LOX 3-4m.1973 (artificial (I-CreI derived))
T8 chain: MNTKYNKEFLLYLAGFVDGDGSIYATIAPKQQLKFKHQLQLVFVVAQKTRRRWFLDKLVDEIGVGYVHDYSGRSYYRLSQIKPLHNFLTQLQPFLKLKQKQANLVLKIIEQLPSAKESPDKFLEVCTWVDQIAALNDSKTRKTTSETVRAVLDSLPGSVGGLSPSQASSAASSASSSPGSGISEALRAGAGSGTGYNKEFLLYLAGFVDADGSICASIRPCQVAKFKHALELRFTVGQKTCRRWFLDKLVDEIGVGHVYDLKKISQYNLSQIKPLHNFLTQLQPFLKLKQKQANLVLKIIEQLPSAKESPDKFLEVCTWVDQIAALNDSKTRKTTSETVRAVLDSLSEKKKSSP
Excerpt: as §1
as §2, with “subunit. The N-terminal subunit recognizes the reverse complement of the AG portion of the four base pair center sequence, which is CT, and the C-terminal subunit recognizes the GC portion of the […] center sequence.” for “subunit.”, “TTGG” for “TCAA”, “248)” for “331)”, “1. The substitutions in each subunit are provided in Tables 177 and 178, respectively.” for “1.”

LOX 3-4m.2151 = biological target: T9, LOX 3-4m.2151 (artificial (I-CreI derived))
T9 chain: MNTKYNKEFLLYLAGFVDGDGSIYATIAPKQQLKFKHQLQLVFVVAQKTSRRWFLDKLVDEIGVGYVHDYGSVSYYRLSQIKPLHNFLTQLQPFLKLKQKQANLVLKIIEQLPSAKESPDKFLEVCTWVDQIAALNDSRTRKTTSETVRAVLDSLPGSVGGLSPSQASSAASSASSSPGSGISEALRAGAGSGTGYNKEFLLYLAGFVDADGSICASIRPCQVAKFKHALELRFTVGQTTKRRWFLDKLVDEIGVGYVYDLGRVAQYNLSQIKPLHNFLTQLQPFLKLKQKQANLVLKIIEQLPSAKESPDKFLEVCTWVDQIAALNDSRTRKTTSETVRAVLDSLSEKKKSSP
Excerpt: as §1
as §2, with “TTAA” for “TCAA”, “341)” for “331)”, “1. The substitutions in each subunit are provided in Tables 174 and 175, respectively.” for “1.”

LOX 3-4m.2125 = biological target: T10, LOX 3-4m.2125 (artificial (I-CreI derived))
T10 chain: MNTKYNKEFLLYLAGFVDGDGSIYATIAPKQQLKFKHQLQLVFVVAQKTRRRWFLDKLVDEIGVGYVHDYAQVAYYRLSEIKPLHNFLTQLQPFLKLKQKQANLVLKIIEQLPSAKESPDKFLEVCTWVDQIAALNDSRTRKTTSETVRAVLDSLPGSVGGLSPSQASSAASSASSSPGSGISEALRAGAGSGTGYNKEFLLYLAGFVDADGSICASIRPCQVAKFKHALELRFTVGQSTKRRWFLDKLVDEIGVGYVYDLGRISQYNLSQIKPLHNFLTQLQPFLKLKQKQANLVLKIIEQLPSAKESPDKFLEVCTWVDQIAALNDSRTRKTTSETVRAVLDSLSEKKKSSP
Excerpt: as §1
as §2, with “TTAA” for “TCAA”, “341)” for “331)”, “1. The substitutions in each subunit are provided in Tables 174 and 175, respectively.” for “1.”

LOX 3-4m.2145 = biological target: T11, LOX 3-4m.2145 (artificial (I-CreI derived))
T11 chain: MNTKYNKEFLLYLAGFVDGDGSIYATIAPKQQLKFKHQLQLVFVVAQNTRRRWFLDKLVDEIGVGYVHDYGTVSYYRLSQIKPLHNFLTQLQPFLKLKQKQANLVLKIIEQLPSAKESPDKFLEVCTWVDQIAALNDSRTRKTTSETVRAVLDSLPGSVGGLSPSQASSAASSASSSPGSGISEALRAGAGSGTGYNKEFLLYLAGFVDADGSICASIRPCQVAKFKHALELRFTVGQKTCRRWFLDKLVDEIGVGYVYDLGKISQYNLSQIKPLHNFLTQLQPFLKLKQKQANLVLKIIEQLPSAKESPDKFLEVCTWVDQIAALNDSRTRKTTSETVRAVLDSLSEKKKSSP
Excerpt: as §1
as §2, with “TTAA” for “TCAA”, “341)” for “331)”, “1. The substitutions in each subunit are provided in Tables 174 and 175, respectively.” for “1.”

LOX 3-4m.2142 = biological target: T12, LOX 3-4m.2142 (artificial (I-CreI derived))
T12 chain: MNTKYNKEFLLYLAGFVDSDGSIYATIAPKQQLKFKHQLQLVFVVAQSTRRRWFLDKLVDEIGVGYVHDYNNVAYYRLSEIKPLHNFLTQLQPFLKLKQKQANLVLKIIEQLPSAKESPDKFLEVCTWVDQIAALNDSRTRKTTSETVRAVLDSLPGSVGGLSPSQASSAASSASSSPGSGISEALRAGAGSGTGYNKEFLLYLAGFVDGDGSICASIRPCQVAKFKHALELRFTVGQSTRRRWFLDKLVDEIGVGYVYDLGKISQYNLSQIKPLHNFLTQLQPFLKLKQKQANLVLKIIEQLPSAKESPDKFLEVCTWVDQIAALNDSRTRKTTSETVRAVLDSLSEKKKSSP
Excerpt: as §1
as §2, with “TTAA” for “TCAA”, “341)” for “331)”, “1. The substitutions in each subunit are provided in Tables 174 and 175, respectively.” for “1.”

B1: LOX 3-4 TCAA (dsDNA)
DNA 1: GTATAGCATTCAATATACGAAG
DNA 2: CTTCGTATATTGAATGCTATAC
- activity (LOX 3-4m.2189): 11.7 % GFP
- activity (LOX 3-4m.2157): 9.79 % GFP
- activity (LOX 3-4m.2165): 10.3 % GFP
- activity (LOX 3-4m.2229): 11.8 % GFP

B2: LOX 3-4 TTGG (dsDNA)
DNA 1: GTATAGCATTTGGTATACGAAG
DNA 2: CTTCGTATACCAAATGCTATAC
- activity (LOX 3-4m.1970): 13.5 % GFP
- activity (LOX 3-4m.2045): 14.2 % GFP
- activity (LOX 3-4m.1981): 13.5 % GFP
- activity (LOX 3-4m.1973): 14.3 % GFP

B3: LOX 3-4 TTAA (dsDNA)
DNA 1: GTATAGCATTTAATATACGAAG
DNA 2: CTTCGTATATTAAATGCTATAC
- activity (LOX 3-4m.2151): 13 % GFP
- activity (LOX 3-4m.2125): 12.7 % GFP
- activity (LOX 3-4m.2145): 12.9 % GFP
- activity (LOX 3-4m.2142): 13.9 % GFP
